This data set in a line: yeast display, Sf9 membrane polyspecificity reagent, FACS + sequencing; frameworks hold sequencing errors. The gist of the method:
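A nanobody's polyreactivity label depends on the gate it was sorted from. Yeast display cells were stained with 10% biotinylated, detergent-solubilized Sf9 membrane reagent for 1 hour at 4 °C, enriched on streptavidin microbeads and sorted by FACS. The low and high (top ~1%) gates were set on anti-HA fluorescence for expression and streptavidin fluorescence for reagent binding.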
As to “QVQLVESGGGLVQAGGSLRLSCAASGSIFGANAMGWYRQAPGKERELVAAISSGDSTYADSVKGRFTISRDNAKNTVYLQMNSLKPEDTAVYYCATCRYGGQGYPFYYWGQGTQVTVSS”, the “polyreactivity (PSR sort gate)” value is recorded as “low polyreactivity”.

As for “QVQLVDSGGGLVQAGGSLRLSCAASGRIFQPNAMGWYRQAPGKEMEFVAAISSSGGSTFYADSVKGRFTISRDNAKNTVYLQMNSLKPEDTAVYYCAKRYGYTEYYYWGQGTQVTVSS”, the “polyreactivity (PSR sort gate)” value was “high polyreactivity”.

As to “QVQLVESGGGLVQAGGSLRLSCAASGGISDVYAMGWYRQAPGKERELVAAINWSGGSTYYADSVKGRFTISRDNAKNTVYLQMNSLKPEDTAVYYCAADPGIIGTFDWYDYWGQGTQVTVSS”, the “polyreactivity (PSR sort gate)” value is reported as “low polyreactivity”.

Consider “QVQLVESGGGLVQAGGSLRLSCAASGFTFYSNAMGWYRQAPGKEREMVATITASGGSTYYADSVKGRFTNSRDNAKYTVYVQMYSLKPEDTAVYYCAKDLYWYYRRRGQYVYWGQGTQVTVSS”, for which the “polyreactivity (PSR sort gate)” value was “high polyreactivity”.

Regarding “QVQLVESGGGLVQAGGSLRLSCAASGNTFWKYAMGWYRQAPGKERELVAAITRGGARTYYADSVKGRFTISRDNAKYSVYLQINSLNPEDTAVYYCAAQYWTEYGSWGQGTEVTVSS”, the “polyreactivity (PSR sort gate)” value is “low polyreactivity”.

With “QVQLVESGGGLVQAGGSLRLSCAASGSIFYYYAMGWYRQAPGKERELVAAIDASGGSTYYADSVKGRFTISRDNAKNTVYLQMNSLKPEDTAVYYCATRSPRLSRHRRYYSWGQGTQVTVSS”, the “polyreactivity (PSR sort gate)” value is given as “high polyreactivity”.

For the sequence “QVQLVESGGGLVQAGGSLRLSCAASGSTFQPYAMGWYRQAPGKERELVAAITFSGGSTYYADSVKGRFTISRDNAKNTVYLQMNSLKPEDTAVYYCAAYRRPDYGSWGQGTQVTVSS”, the “polyreactivity (PSR sort gate)” value is listed as “high polyreactivity”.

For “QVQLVESGGGLVQAGGSLRLSCAASGSIFYSNAMGWYRQAPGKERELVAAINWRGGSTYYADSVKGRFTISRDYAKNTVYLQMNSLKPEDTAVYYCNADSYDEIKYGYWGQGTQVTVSS”, the “polyreactivity (PSR sort gate)” value was “low polyreactivity”.

Consider “QVQLVDSGGGLVQAGGSLRLSCAASGITIEYNDMGWYRQAPGTERELVAAISLSSGSTYYADSVKGRFTISRDNAKNTVYLQMNSLKPEDTAVYYCNADTIIYEGGYWGQGTQVTVSS”, for which the “polyreactivity (PSR sort gate)” value is listed as “low polyreactivity”.

With “QVQLVESGGGLVQAGGSLRISCAASGSIFPEYAMGWYRQAPGKERELVAAITTSGGSTYYADSVKGRFTISRDNAKNTVYLQMNSLKPEDTAVYYCAVEYLVYLDYTYDYWGQGTQVTVSS”, the “polyreactivity (PSR sort gate)” value is listed as “low polyreactivity”.

“QVQLVESGGGLVQAGGSLRLSCAASGFIFRYYAMGWYRQAPGKERELDAAISGSGGSTYYADSVKGRFTISRDNAKNTVYLQMNSLKPEDTAVYYCAKSYGSHRKIRTSFGYWGQGTQVTVSS”: the “polyreactivity (PSR sort gate)” value is on record as “high polyreactivity”.

On to “QVQLVESGGGLVQAGGSLRLSCAASGSIFRKNAMGWYRQAPGKERELVATISGGGSTTYADSVKGRFTISRDNAKNTVYLQMNSLKPEDTAVYYCAARSTWFQIRYGYWGQGTQVTVSS”, for which the “polyreactivity (PSR sort gate)” value is given as “high polyreactivity”.

For “QVQLVESGGGLVQAGGSLRLSCAASGRTFEWNAMGWYRQAPGKERELVAAITKRGGITYYADSVKGRFTISRDNAKNTVYLQMNSLKPEDTAVYYCAKRIVFYGRYDYWGQGTQVTVSS”, the “polyreactivity (PSR sort gate)” value is given as “high polyreactivity”.

For “QVQLGESGGGLVQAGGSLRLSCAASGNTFYRNAMGWYRQAPGKERELVAAIDYSAGSTYYADCVKGRFTISRDNAKNTVYLQMHSLKPEDTADDYCAAVARTSRGRRYYSWGQGTQVTVSS”, the “polyreactivity (PSR sort gate)” value is given as “low polyreactivity”.

In the case of “QVQHVESGGGLVQAGGSLRLSCAASGYTFGGNAMGWYRQAPGKERELVAAISSGGSTNYADSVKGRFTISRDNAKNTVYLQMNSLKPEDTAVYYCNKRGYYYWSGQDVASYDYWGQGTQLTVSS”, the “polyreactivity (PSR sort gate)” value was “low polyreactivity”.

Regarding “QVQHVESGGGIVQAGGSLRLSCAASGITFDEYAMGWYRQAPGKEWELVATITWSGGSTYYADSVKGRFTISRVNAKNTVDLKMNSLKPEDSAVYYCAARDSGRYDDFGYWGQGTQVTVSS”, the “polyreactivity (PSR sort gate)” value is listed as “low polyreactivity”.

Take “QVQLVESGGGLVQEGGSLRLSCAASGRTFWYYGMGWYRQAHGKERELVAAISRSGGRTSYADSVKGRFTISRDNAKNTVYLQMIRLKPEDTAVYYCATDGYYRYGYWGQGTQVTVSS”: the “polyreactivity (PSR sort gate)” value was “high polyreactivity”.

“QVQLVESGGGLVQAGGSLRLSCAASGSIFFSYAMGWYRPAPGKERELVAGINWSGGSTYADSVKGRFTLSRDNAKNTVYLQINSLKPEDTAVYYCAAKYYSERSRYHYWGQGTQVTVSS”: the “polyreactivity (PSR sort gate)” value is listed as “low polyreactivity”.

As to “QVQLVESGGGLVQAGGSLRLSCAASGSIFPYYAMGWYRQAPGKEREFVAAITISGGSTYYADSVKGRFTISRDNAKNTVYLQMNSLKPEDTAVYYCAVDRGISVGYTRFDYWGKGTQVTVSS”, the “polyreactivity (PSR sort gate)” value is listed as “low polyreactivity”.

With “QVQLVESGGALVQAGGSIRLSCAASGFISRKNALGWYSQAPGKERELVATITKSGDTTYYADSVKGRFTISRDNAKNTVYLQMNSLKPEETAVYYCAAPLYYIGSWDYYVRYIYDYWGQGTQVTVSS”, the “polyreactivity (PSR sort gate)” value is recorded as “low polyreactivity”.

Regarding “QVQLVESGGGLVQAGGSLRLSCAASGSTFKSYAMGWYRQAPGKERELVAAITRGGSTNYADSVKGRFTISRDNAKNTVYLQMNSLKPEDTAVYYCAKTYRYRTMDYWGQGTQVTVSS”, the “polyreactivity (PSR sort gate)” value is listed as “low polyreactivity”.

“QVQLGESGGGLVQAGGSLRLSCAASGSTFYVYAQGWYRPAPGKERELVAAISSSGARTYYADSVKGRFTISRDNAKNTVYLQMNCLKPDDTAVLYCAARRYYKFYYWGHGTQVTVSS”: the “polyreactivity (PSR sort gate)” value is reported as “high polyreactivity”.

Regarding “QVQLVESGGGLVQAGGSLRLSCAASGSTLWFNAMGWYRQAPGKERELVAAISFSSGSTYYADSVKGRFTISRDNAKNTVYLQMNSLKPEDTAVYYCAARLRWWGYDYWGQGTQVTVSS”, the “polyreactivity (PSR sort gate)” value was “high polyreactivity”.

For “QVQLVESGGGLVQAGGSLRLSCAASGNTDVGYAMGWYRQAPGKETEFVAAISSRTGRTYYADTVKGRFTISRDNAKNTVFLQMISLKPEDTAVYYCAAVRGAPRYRYDYWGQGTQVTVSS”, the “polyreactivity (PSR sort gate)” value was “high polyreactivity”.

“QVHLVESGGGLVQAGGSLRLSSADTGYTFVNYARGWNRQAPGKERELVAAISDRGGSMYYADAVKGRFTISRDNAKNTVDLQMNSLKPEETAVYYCAAQHTGKYTGTRYFYWGQGTQVTVSS”: the “polyreactivity (PSR sort gate)” value is “high polyreactivity”.

As to “QVQLVESGGGLVQAGGSLRLSCAASGIIFFRNAMGWYRQAPGKERELVAAISSGGSTYYADSVKGRFTISRDNAKNTVYLQMNSLKPEDTAVYYCNKVVPLYYASYDYWGQVTQVTVSS”, the “polyreactivity (PSR sort gate)” value is “low polyreactivity”.

Turning to “QVQLVESGGGLDQAGGSLRLSCAASGLTFYKYAMGWYRQAPRKERELVASISRTGGSTYYADSVKGRFTISRDNANNTVYLQMNSLKPEDTAFYYCAARRGYYYGRVGYWGQGTQVTVSS”, the “polyreactivity (PSR sort gate)” value is “high polyreactivity”.

“QVQLVESGGGLVQAGGSLRLSCAASGRTFRVYTMGWYRQAPGKERELVAAISSRGGSTYYADSVKGRFTISRDNAKNTVYLQMYSLKPEDTAVYYCAASKFRSGGYDYWGQGTQVTVSS”: the “polyreactivity (PSR sort gate)” value was “high polyreactivity”.

For “QDQLVESGGGLVQAGGGLRLSCAASVRTFSKYTMGWYRQAPGKERELVAAISYSGGSTYYADSVKGRFTISRDNAKNTVYLQMNSLKPEDTAVYYCAARASTYKYYYWGQGTQVTVSS”, the “polyreactivity (PSR sort gate)” value is reported as “high polyreactivity”.

Turning to “QVQLVESGGGLVQAGGSLRLICAASGSTFYTYAMGWYRQAPGKEREFVAAIRWRGGSTYYADSVKGRFTISRDNSKNTVFLQMNSLKPEDTAVYYCAAVSPGTVTNGKSRDYWGQGTQVTVSS”, the “polyreactivity (PSR sort gate)” value was “high polyreactivity”.

On to “QVQLVESGGGLVQAGGSLRLSCASSGSIFVHNDMGWYRQAPGKERELVARINTGGGTNYADSVKGRFTISRDNSKNTVYLQMNRLKPEDRAVYYCAAVLFVFYDEYGYWEYFSQYDYWGQGTKVTVSS”, for which the “polyreactivity (PSR sort gate)” value is on record as “low polyreactivity”.

As for “QVQLVESGGGLVQAGGSLRLSCAASGRIFYYYAMGWYRQAPGKERELVAAISWSGGSTYYADSVKGRFTISRDNAKNTVYLQMNSLKPEDTAVYYCAAESRKYREYYFWGQGTQVTVSS”, the “polyreactivity (PSR sort gate)” value is given as “high polyreactivity”.

“QVQLVESGGGLVQAGGSLRLSCAASGSTFTTNAMGWYRQAPGKERELVATISRGGSTYYADSVKGRFTISRDNAKNTVYIQMNRLKPEDTAVYYCATDVQVPGIGRSVYAYEYWGQVTQVTVSS”: the “polyreactivity (PSR sort gate)” value is given as “low polyreactivity”.

In the case of “QVQLVESGGGLVQAGGSLRLSCAASGSTFGWYAIGWNRQAPGKERELVAAINSDGSTYYADSVKGRFTISRDNAKNNVYLQMNSLKPEDPAVYYCATDDALYGYLYHNYGYWGEGTQVTVSS”, the “polyreactivity (PSR sort gate)” value was “low polyreactivity”.

Regarding “QVQLVESGGGLVQAGGSLRLSCAASGSIFASYVMGWYRQAPGKERELVAAISSSGASTYYADSVKGRFTISRDNAKNTVSLQMNSLKPEDTAVSYCATPYYRSYLGDYWGQGTQVTVSS”, the “polyreactivity (PSR sort gate)” value is on record as “high polyreactivity”.

On to “QVQLVESGGGLVQAGGSLRLSCAASGFTFSSNGMGWYRQAPGKERELVAAITRRGGSTYYADSVKGRFTISRDNAKNTVYLQMNSLKPEDTAVYYCAARRSGTYYGTYKSNGRNYWGQGTQVTVSS”, for which the “polyreactivity (PSR sort gate)” value is given as “high polyreactivity”.

As for “QVQLVESGGGLVQAGGSLRLSCAASGRIFATNGMGWYRQATGKERELVATSTRSAGRTYYADSVKGRFTISRDNAKNTVYLQMNSLKPEDTAVYYCAADGYSTAVDDTVRYIVEYEYWGQGTQVTVSS”, the “polyreactivity (PSR sort gate)” value is on record as “low polyreactivity”.

On to “QVQLVESGGGLVQAGGSLRLSCAASGSIFQKYAMGWYRQAPGKDRELVAAISWDGGRTYYADSVKGRFTISRDNAKNTVYLQMNSLKPEDTAVYYCYWYDYWGHGTQVTVSS”, for which the “polyreactivity (PSR sort gate)” value was “high polyreactivity”.

Turning to “HGQLVESGGGLVHAGGSLRLSCAASGSTFAIYALGWYREAPGKERELVAGITGRGTSTYYADSVKGRFTISRDNAKNTVYLQMNSLKPEDTAVYYCNKVRYAFRYDYWGQGTQVTVSS”, the “polyreactivity (PSR sort gate)” value is given as “high polyreactivity”.

Take “QVQLVESGGGLVQAGGSLRLSCAASGSTFTFNAMAWYRQAPGKEREFVAAITASGGRTYYADSVKGRFTISRDNAKNTVYLQMNSLKPEDTAVYYCNASQWPSRFDYWGQGTQVTVSS”: the “polyreactivity (PSR sort gate)” value was “low polyreactivity”.

Regarding “QVQIVESGGGLVQEGGSLRLRCAASGFTFGYYRMGWYRQAPGKERELVAAISRSAGSTYYADSVKGRFTISRDNAKNTVYLQMNSLKPEDTAVYYCNAAVFRTEGGYSTFNYWGQGSQVTVSS”, the “polyreactivity (PSR sort gate)” value was “high polyreactivity”.
